Reference: PMC3261901

Key:
[1] = molecular target: Trypanosoma cruzi oligopeptidase B (OPBTc), recombinant, N-terminal His-tagged (Trypanosoma cruzi (CL Brener)); test: SEC; Superdex 200 10/300, 25 mM Tris-HCl pH 8.0, 200 mM NaCl, room temperature, calibrated with proteins of known Stokes radii; also run with 0.5 or 1.0 M NaCl (same elution, dimer not disrupted)
[2] = molecular target: Trypanosoma cruzi oligopeptidase B (OPBTc), recombinant, N-terminal His-tagged (Trypanosoma cruzi (CL Brener)); test: SEC; enzyme incubated at 28, 37, 42, 50 or 60°C for 20 min before the run; Superdex 200 10/300, 25 mM Tris-HCl pH 8.0; at 50 and 60°C a void-volume aggregate peak and a second peak of 160 kDa
[3] = molecular target: Trypanosoma cruzi oligopeptidase B (OPBTc), recombinant, N-terminal His-tagged (Trypanosoma cruzi (CL Brener)); test: AUC; sedimentation velocity, 10 °C, OPBTc at 28.1, 8.4 and 1.8 µM in 25 mM Tris pH 8.0, 100 mM NaCl, 130,000 x g; c(s) analysis, s combined with the Stokes radius from SEC

Measured: stoichiometry N

Trypanosoma cruzi oligopeptidase B (OPBTc), recombinant, N-terminal His-tagged (enzyme)
2: all assays above
